Reference: patent publication US20210238298A1 (ALLIGATOR BIOSCIENCE, published 2021)

Legend:
[1] = target: T1, CTLA-4 (BMS, Orencia) (human, UniProt P16410 38-152); assay: cell-based or functional assay
[2] = target: T1, CTLA-4 (BMS, Orencia); assay: cell-based or functional assay; remark: listed apart in the source
[3] = target: T2, CD40 (Ancell) (UniProt P25942 21-193); assay: ELISA, coated CD40-Fc
T2 construct: also called CD40-Fc (Ancell #504-820); not shown: Fc part, not described
Description: (§1) ELISA plates (Greiner #655074) were coated with 50 μl/well of recombinant human OX40 (R&D #1493-CD), CD40-Fc (Ancell #504-820) or CD137 (R&D #838-4B) diluted to a final concentration of 0.5 μg/ml in PBS for 1 h at 37° C. or overnight at 4° C. Plates were washed with PBS+0.05% TWEEN20 (PBST), followed by block with PBST+1% bovine serum albumin (BSA). Antibody samples were prepared as serial 1/10 dilutions from 10-0.01 μg/ml in PBST+1% BSA and incubated for 1h in room temperature, followed by detection using a horse radish peroxidase-conjugated anti-human kappa light chain antibody (AbD Serotec #STAR127P) and developed using SuperSignal ELISA Pico Chemiluminescent substrate (Pierce ThermoScientific #37069).

[4] = target: CD137 on primary human CD8+ T cells (human, UniProt Q07011 24-255); assay: cell-based or functional assay
Sequence of CD137 on primary human CD8+ T cells (Q07011 24-255 limits assumed): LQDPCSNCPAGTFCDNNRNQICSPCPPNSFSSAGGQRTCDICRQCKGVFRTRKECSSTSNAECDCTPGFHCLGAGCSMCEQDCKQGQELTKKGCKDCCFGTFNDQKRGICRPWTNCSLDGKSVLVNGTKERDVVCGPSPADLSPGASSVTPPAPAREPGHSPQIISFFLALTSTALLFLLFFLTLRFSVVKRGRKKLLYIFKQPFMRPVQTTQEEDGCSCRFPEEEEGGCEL

[5] = target: T3, CD137 chimera 1554 (1411): human CD137 with mouse domains 3B, 4A and 4B (aa 97-159), on FreeStyle 293-F cells (human; mouse, UniProt P20334 96-159); assay: flow cytometry, 293-F transfectants
T3 construct: domain: 3B, 4A and 4B
T3 sequence (P20334 other isoform, or with tags, fused parts or gaps mutant limits assumed): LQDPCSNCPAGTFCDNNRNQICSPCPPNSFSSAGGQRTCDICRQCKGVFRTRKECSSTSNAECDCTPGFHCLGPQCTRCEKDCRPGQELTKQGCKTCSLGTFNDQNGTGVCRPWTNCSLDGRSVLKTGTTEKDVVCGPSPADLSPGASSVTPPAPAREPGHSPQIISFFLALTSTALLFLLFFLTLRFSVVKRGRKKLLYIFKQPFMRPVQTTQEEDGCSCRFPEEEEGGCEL

[6] = target: T4, CD137 chimera 1555 (1412): human CD137 with mouse domains 1 and 4B and region of unknown function (aa 24-46 … (human; mouse, UniProt P20334 24-45; P20334 139-185); assay: flow cytometry, 293-F transfectants
T4 construct: domain: 1;domain: 4B and region of unknown function
T4 sequence (P20334 other isoform, or with tags, fused parts or gaps mutant limits assumed): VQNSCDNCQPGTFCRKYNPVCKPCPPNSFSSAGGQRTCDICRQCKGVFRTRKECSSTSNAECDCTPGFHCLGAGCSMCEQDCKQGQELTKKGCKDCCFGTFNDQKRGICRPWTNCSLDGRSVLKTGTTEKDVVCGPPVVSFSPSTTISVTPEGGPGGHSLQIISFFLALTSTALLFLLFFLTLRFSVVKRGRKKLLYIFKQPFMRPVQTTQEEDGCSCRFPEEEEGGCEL

[7] = target: T5, Human OX40 (R&D systems, #3358_OX) (human, UniProt P43489 29-216); assay: ELISA, coated recombinant human OX40
T5 construct: Bought; Several catalogue numbers are given for it; also called human OX40 (R&D Systems, 3388-OX); OX40-Fc (R&D systems, #3358_OX); not shown: Fc part
T5 sequence: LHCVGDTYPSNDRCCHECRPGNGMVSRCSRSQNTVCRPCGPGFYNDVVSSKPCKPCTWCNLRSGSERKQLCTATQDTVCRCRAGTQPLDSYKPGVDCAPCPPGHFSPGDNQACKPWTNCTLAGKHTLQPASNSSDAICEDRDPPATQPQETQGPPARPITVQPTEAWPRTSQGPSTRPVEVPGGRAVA
Description: as §1

[8] = target: T5, Human OX40 (R&D systems, #3358_OX); assay: dual ELISA: OX40-Fc coated, bispecific antibody in dilutions, biotinylated CD137-Fc (1 ug/ml), HRP-streptavidin; the signal needs both bindings at once
[9] = target: T6, CTLA4-Fc (Fitzgerald, #30R-CD152) (human, UniProt P16410 38-152); assay: SPR (Biacore), immobilised CTLA4-Fc
T6 construct: Bought; also called human CTLA-4 (Fitzgerald); biotinylated-CTLA4; not shown: Fc part of the bought fusion, not described
T6 sequence (P16410 38-152 limits assumed): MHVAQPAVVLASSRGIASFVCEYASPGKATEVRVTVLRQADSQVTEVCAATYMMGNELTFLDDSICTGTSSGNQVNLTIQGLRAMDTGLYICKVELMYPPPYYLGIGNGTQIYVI
Description: Either CTLA4-Fc (Fitzgerald, #30R-CD152) or CD28-Fc (R&D Systems, 342-CD) was immobilized to the Biacore™ sensor chip, CM5, using conventional amine coupling. The CD86 mutant molecules and controls (serially diluted ½ 100-1.5 nM) were analyzed for binding in HBS-P (GE, BR-1003-68) at a flow rate of […]. The association was followed for 3 minutes and the dissociation for 10 minutes. Regeneration was performed twice using 5 mM NaOH for 30 seconds. The kinetic parameters and the affinity constants were calculated using BIAevaluation 4.1 software (Table 1.3).

[10] = target: T6, CTLA4-Fc (Fitzgerald, #30R-CD152); assay: inhibition ELISA; the best IC50 of Table 1.2 is that of 1040
Description: The sample (CD86 mutant or wild type protein; serially diluted ¼ from 30000 to 0.3 ng/ml) was incubated with biotinylated-CTLA4 (Fitzgerald, #30R-CD152) in room temperature 1 h, the mixture was then added to the blocked wells in the ELISA plate. Detection was performed with Streptavidin-HRP (Pierce, #21126) and the plates were subsequently developed using SuperSignal Pico Chemiluminescent substrate (Thermo Scientific, #37069) and detected with Envision reader (Perkin Elmer). […] Kd binding ratio=[Kd for CD28]÷[Kd for CTLA-4].

T1 sequence (P16410 38-152 limits assumed): as above
T2 sequence (P25942 21-193 limits assumed): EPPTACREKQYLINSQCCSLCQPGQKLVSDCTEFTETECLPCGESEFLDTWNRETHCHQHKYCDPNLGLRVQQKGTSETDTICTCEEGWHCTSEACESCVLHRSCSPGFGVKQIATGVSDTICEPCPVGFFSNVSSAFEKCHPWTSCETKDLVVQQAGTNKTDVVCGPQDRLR

Binder | binding result [3] | Max IFN-γ [4] [pg/mL] | Mean IFN-γ [4] [pg/mL] | Min IFN-γ [4] [pg/mL] | binding result [7] | other results
bispecific molecule 1170/1263 (OX40 x CTLA-4) (bispecific antibody, human IgG1, kappa) heavy: not shown light: DIQMTQSPSSLSASVGDRVTITCRASQSISSYLNWYQQKPGKAPKLLIYAASSLQSGVPSRFSGSGSGTDFTLTISSLQPEDFATYYCQQGHGSYPHTFGQGTKLEIKRTVAAPSVFIFPPSDEQLKSGTASVVCLLNNFYPREAKVQWKVDNALQSGNSQESVTEQDSKDSTYSLSSTLTLSKADYEKHKVYACEVTHQGLSSPVTKSFNRGECSGGGGSGGGGSAPLKIQAYFNETADLPCQFANSQNLSLSELVVFWQDQENLVLNEVYLGKERFDSVDSKYMGRTSFDSDSWTLRLHNLQIKDKGRYQCIIHHKKPTGMINIHQMNSELSVLA |  |  |  |  |  | Fold change in IL-2 level induced by bispecific molecule compared to the corresponding combination of the monospecific molecules at 1.5 nM [1]: 4.7 fold; Mean IL-2 level (pg/ml) induced at 1.5 nM [2]: 2580 pg/mL
bispecific molecule 1526/1585 (OX40 x CTLA-4) (bispecific antibody, human IgG1, kappa) heavy: not shown light: DIQMTQSPSSLSASVGDRVTITCRASQSISSYLNWYQQKPGKAPKLLIYAASSLQSGVPSRFSGSGSGTDFTLTISSLQPEDFATYYCQQYGSDSLLTFGQGTKLEIKRTVAAPSVFIFPPSDEQLKSGTASVVCLLNNFYPREAKVQWKVDNALQSGNSQESVTEQDSKDSTYSLSSTLTLSKADYEKHKVYACEVTHQGLSSPVTKSFNRGECSGGGGSGGGGSAPLKIQAYFNETADLPCQFANSQNLSLSELVVFWQDQENLVLNEVYLGKERFDSVDSKYMGRTSFDSDSWTLRLHNLQIKDKGRYQCIIHHKKPTGMINIHQMNSELSVLA |  |  |  |  |  | Mean IL-2 level (pg/ml) induced at 1.5 nM [2]: 3200 pg/mL
anti-CD137 antibody 1204/1205 (antibody, IgG1, V domains shown, Produced as IgG; also called 1204-bio) VH: EVQLLESGGGLVQPGGSLRLSCAASGFTFSSYYMGWVRQAPGKGLEWVSGIGSYYGYTGYADSVKGRFTISRDNSKNTLYLQMNSLRAEDTAVYYCARAYYDYNYYYAYFDYWGQGTLVTVSS VL: DIQMTQSPSSLSASVGDRVTITCRASQSISSYLNWYQQKPGKAPKLLIYAASSLQSGVPSRFSGSGSGTDFTLTISSLQPEDFATYYCQQSVPHYPFTFGQGTKLEIK | no binding (tested: 10 µg/ml) | 153000 | 64400 | 13100 | no binding (tested: 10 µg/ml) | relative binding (MFI sample/isotype control, normalised to full-length human CD137) [5]: 0.73; relative binding (MFI sample/isotype control, normalised to full-length human CD137) [6]: 0.28
anti-CD137 antibody 1626/1627 (antibody, IgG1, V domains shown, Produced as IgG; also called 1626-bio) VH: EVQLLESGGGLVQPGGSLRLSCAASGFTFGGYSMYWVRQAPGKGLEWVSSIGGYYYSTYYADSVKGRFTISRDNSKNTLYLQMNSLRAEDTAVYYCARSYYGSIDYWGQGTLVTVSS VL: DIQMTQSPSSLSASVGDRVTITCRASQSISSYLNWYQQKPGKAPKLLIYAASSLQSGVPSRFSGSGSGTDFTLTISSLQPEDFATYYCQQGTGYGPLTFGQGTKLEIK | no binding (tested: 10 µg/ml) | 32200 | 15100 | 4160 | no binding (tested: 10 µg/ml) | 
1526/1527-1204/1205 (bispecific antibody, human IgG1, kappa, OX40 x CD137 bispecific antibody, scFv-IgG format) heavy chain fused to scFv (VH1-Hc-linker-VH2/VL2): not shown light chain (VL1-Lc): DIQMTQSPSSLSASVGDRVTITCRASQSISSYLNWYQQKPGKAPKLLIYAASSLQSGVPSRFSGSGSGTDFTLTISSLQPEDFATYYCQQYGSDSLLTFGQGTKLEIKRTVAAPSVFIFPPSDEQLKSGTASVVCLLNNFYPREAKVQWKVDNALQSGNSQESVTEQDSKDSTYSLSSTLTLSKADYEKHKVYACEVTHQGLSSPVTKSFNRGEC |  |  |  |  |  | binding result [8]: binds
CD86 mutant 1040 (ligand, Variant of the CD86 extracellular domain) APLKIQAYFNETADLPCQFANSQNLSLSELVVFWQDQENLVLNEVYLGKERFDSVDSKYMGRTSFDSDSWTLRLHNLQIKDKGRYQCIIHHKKPTGMINIHQMNSELSVLA |  |  |  |  |  | Kd [9]: 3 nM; koff [9]: 0.0032 s⁻¹; kon [9]: 1e+06 M⁻¹ s⁻¹; fold improvement of IC50 compared to wild type [10]: > 100 fold
anti-CD137 antibody 1214/1215 (antibody, IgG1, V domains shown, Produced as IgG; also called 1214-bio) VH: EVQLLESGGGLVQPGGSLRLSCAASGFTFSSYAMSWVRQAPGKGLEWVSSIGSGGGYTGYADSVKGRFTISRDNSKNTLYLQMNSLRAEDTAVYYCARVGHPFDYWGQGTLVTVSS VL: DIQMTQSPSSLSASVGDRVTITCRASQSISSYLNWYQQKPGKAPKLLIYAASSLQSGVPSRFSGSGSGTDFTLTISSLQPEDFATYYCQQDAYPHTFGQGTKLEIK | no binding (tested: 10 µg/ml) | 122000 | 51800 | 8210 | no binding (tested: 10 µg/ml) | 
anti-CD137 antibody 1620/1621 (antibody, IgG1, V domains shown, Produced as IgG) VH: EVQLLESGGGLVQPGGSLRLSCAASGFTFSGYYMYWVRQAPGKGLEWVSGISSSGSYTYYADSVKGRFTISRDNSKNTLYLQMNSLRAEDTAVYYCARSVGPYFDYWGQGTLVTVSS VL: DIQMTQSPSSLSASVGDRVTITCRASQSISSYLNWYQQKPGKAPKLLIYAASSLQSGVPSRFSGSGSGTDFTLTISSLQPEDFATYYCQQGVGPYTFGQGTKLEIK | no binding (tested: 10 µg/ml) | 123000 | 52400 | 7730 | no binding (tested: 10 µg/ml) | 
